T1: human IL-2 receptor (human, UniProt P01589 22-272; P14784 27-551; P31785 23-369)
T1 sequence (looked up) 1: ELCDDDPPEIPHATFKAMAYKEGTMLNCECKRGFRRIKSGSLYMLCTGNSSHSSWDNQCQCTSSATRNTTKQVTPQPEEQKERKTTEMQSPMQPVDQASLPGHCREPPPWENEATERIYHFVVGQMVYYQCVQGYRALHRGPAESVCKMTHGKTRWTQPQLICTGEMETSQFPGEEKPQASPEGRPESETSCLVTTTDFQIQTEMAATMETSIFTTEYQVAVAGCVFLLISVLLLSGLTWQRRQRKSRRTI
T1 sequence (looked up) 2: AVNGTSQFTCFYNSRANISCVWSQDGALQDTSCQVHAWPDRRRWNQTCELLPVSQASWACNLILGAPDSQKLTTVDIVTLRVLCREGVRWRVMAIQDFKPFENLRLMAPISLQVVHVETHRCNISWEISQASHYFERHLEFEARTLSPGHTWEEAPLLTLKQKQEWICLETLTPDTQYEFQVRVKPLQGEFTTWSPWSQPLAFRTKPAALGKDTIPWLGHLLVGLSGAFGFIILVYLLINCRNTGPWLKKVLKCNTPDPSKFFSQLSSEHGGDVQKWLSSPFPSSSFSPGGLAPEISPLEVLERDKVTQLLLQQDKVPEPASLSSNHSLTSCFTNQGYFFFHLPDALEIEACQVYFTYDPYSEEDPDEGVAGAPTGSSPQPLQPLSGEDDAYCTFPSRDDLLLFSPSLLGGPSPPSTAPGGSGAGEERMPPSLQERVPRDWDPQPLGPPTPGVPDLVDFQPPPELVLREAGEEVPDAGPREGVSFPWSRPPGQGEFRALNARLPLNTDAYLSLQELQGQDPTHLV
T1 sequence (looked up) 3: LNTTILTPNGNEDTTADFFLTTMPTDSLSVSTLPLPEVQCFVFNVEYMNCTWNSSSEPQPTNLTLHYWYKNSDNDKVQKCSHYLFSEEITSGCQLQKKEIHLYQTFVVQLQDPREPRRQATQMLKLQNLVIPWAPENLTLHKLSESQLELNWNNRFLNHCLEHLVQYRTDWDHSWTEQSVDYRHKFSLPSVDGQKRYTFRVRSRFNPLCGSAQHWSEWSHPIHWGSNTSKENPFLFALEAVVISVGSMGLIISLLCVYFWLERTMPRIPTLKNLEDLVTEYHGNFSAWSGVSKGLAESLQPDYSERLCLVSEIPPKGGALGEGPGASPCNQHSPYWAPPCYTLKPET

T2: mouse PD-1 (mouse, UniProt Q02242 25-167, limits assumed)
T2 construct: also called mPD-1
T2 sequence (looked up): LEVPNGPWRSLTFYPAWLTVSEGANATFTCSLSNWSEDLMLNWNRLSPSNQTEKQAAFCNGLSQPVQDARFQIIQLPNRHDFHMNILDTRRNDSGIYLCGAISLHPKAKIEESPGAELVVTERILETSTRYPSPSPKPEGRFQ


Columns and labels:
[1] = molecular target: T1, human IL-2 receptor; assay: cell-based or functional assay
[2] = molecular target: human PD-1 overexpressed on HEK-Blue reporter cells (human, UniProt Q15116 25-288); assay: cell-based or functional assay
Sequence of human PD-1 overexpressed on HEK-Blue reporter cells (Q15116 25-288): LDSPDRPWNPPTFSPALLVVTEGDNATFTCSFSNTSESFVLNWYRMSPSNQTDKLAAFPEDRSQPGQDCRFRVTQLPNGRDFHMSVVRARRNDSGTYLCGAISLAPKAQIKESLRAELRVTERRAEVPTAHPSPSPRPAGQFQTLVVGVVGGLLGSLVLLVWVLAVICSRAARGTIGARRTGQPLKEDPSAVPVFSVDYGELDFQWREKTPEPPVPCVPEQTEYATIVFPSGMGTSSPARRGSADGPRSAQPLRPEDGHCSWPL

[3] = molecular target: T2, mouse PD-1; assay: PD-L1-Fc format, calibrated on PD-L1(wt)-Fc binding affinity
[4] = molecular target: T3, human PD-1 (human, UniProt Q15116 25-167, limits assumed); assay: as above
T3 construct: nivolumab is called an anti-human PD-1 antibody; also called hPD-1
T3 sequence (Q15116 25-167 limits assumed): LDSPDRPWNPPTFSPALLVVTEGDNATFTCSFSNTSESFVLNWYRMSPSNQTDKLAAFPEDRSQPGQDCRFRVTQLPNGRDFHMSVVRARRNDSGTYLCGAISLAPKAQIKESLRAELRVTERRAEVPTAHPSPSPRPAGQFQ

IL-2 signal transduction, % of rIL2, HEK-IL-2 cells [1] [%]	IL-2 signal transduction, % of rIL2, HEK-IL-2-PD-1 cells [2] [%]	Kd [3] [nM]	Kd [4] [nM]	Binder
16	76	–	–	IL-2(R38D/K43E/E61R)/PD-L1(mut2)-Fc (Fc fusion) chain 1: FTVTVPKDLYVVEYGSNMTIECKFPVEKQLDLAALQVYWMMEDKNIIQFVHGEEDLKVQHSSYRQRARLLKDQLSLGNAALQITDVKLQDAGVYTCLIAYKGADYKRITVKVNAPYNKINQRILVVDPVTSEHELTCQAEGYPKAEVIWTSSDHQVLSGKTTTTNSKREEKLFNVTSTLRINTTTNEIFYCTFRRLDPEENHTAELVIPELPLAHPPNERGGGSGAPTSSSTKKTQLQLEHLLLDLQMILNGINNYKNPKLTDMLTFEFYMPKKATELKHLQCLERELKPLEEVLNLAQSKNFHLRPRDLISNINVIVLELKGSETTFMCEYADETATIVEFLNRWITFCQSIISTLTGGGGSGGGDKTHTCPPCPAPEKKGGPSVFLFPPKPKDTLMISRTPEVTCVVVDVSHEDPEVKFNWYVDGVEVHNAKTKPREEQYNSTYRVVSVLTVLHQDWLNGKEYKCKVSNKALPAPIEKTISKAKGQPREPQVYVLPPSREEMTKNQVSLLCLVKGFYPSDIAVEWESNGQPENRYMTWPPVLDSDGSFFLYSKLTVDKSRWQQGNVFSCSVMHEALHNHYTQKSLSLSPGK chain 2: FTVTVPKDLYVVEYGSNMTIECKFPVEKQLDLAALQVYWMMEDKNIIQFVHGEEDLKVQHSSYRQRARLLKDQLSLGNAALQITDVKLQDAGVYTCLIAYKGADYKRITVKVNAPYNKINQRILVVDPVTSEHELTCQAEGYPKAEVIWTSSDHQVLSGKTTTTNSKREEKLFNVTSTLRINTTTNEIFYCTFRRLDPEENHTAELVIPELPLAHPPNERGGGGSGGGDKTHTCPPCPAPEDEGGPSVFLFPPKPKDTLMISRTPEVTCVVVDVSHEDPEVKFNWYVDGVEVHNAKTKPREEQYNSTYRVVSVLTVLHQDWLNGKEYKCKVSNKALPAPIEKTISKAKGQPREPQVYVYPPSREEMTKNQVSLTCLVKGFYPSDIAVEWESNGQPENNYKTTPPVLDEDGSFALVSKLTVDKSRWQQGNVFSCSVMHEALHNHYTQKSLSLSPGK
–	–	1100	1200	PD-L1(mut5)-Fc (Fc fusion, also called I54Q/E58M/R113T/S117A/G119K) chain 1: FTVTVPKDLYVVEYGSNMTIECKFPVEKQLDLAALQVYWMMEDKNIIQFVHGEEDLKVQHSSYRQRARLLKDQLSLGNAALQITDVKLQDAGVYTCMIAYKGADYKRITVKVNAPYNKINQRILVVDPVTSEHELTCQAEGYPKAEVIWTSSDHQVLSGKTTTTNSKREEKLFNVTSTLRINTTTNEIFYCTFRRLDPEENHTAELVIPELPLAHPPNERDKTHTCPPCPAPEDEGGPSVFLFPPKPKDTLMISRTPEVTCVVVDVSHEDPEVKFNWYVDGVEVHNAKTKPREEQYNSTYRVVSVLTVLHQDWLNGKEYKCKVSNKALPAPIEKTISKAKGQPREPQVYVYPPSREEMTKNQVSLTCLVKGFYPSDIAVEWESNGQPENNYKTTPPVLDEDGSFALVSKLTVDKSRWQQGNVFSCSVMHEALHNHYTQKSLSLSPGK chain 2: FTVTVPKDLYVVEYGSNMTIECKFPVEKQLDLAALQVYWMMEDKNIIQFVHGEEDLKVQHSSYRQRARLLKDQLSLGNAALQITDVKLQDAGVYTCMIAYKGADYKRITVKVNAPYNKINQRILVVDPVTSEHELTCQAEGYPKAEVIWTSSDHQVLSGKTTTTNSKREEKLFNVTSTLRINTTTNEIFYCTFRRLDPEENHTAELVIPELPLAHPPNERDKTHTCPPCPAPEKKGGPSVFLFPPKPKDTLMISRTPEVTCVVVDVSHEDPEVKFNWYVDGVEVHNAKTKPREEQYNSTYRVVSVLTVLHQDWLNGKEYKCKVSNKALPAPIEKTISKAKGQPREPQVYVLPPSREEMTKNQVSLLCLVKGFYPSDIAVEWESNGQPENRYMTWPPVLDSDGSFFLYSKLTVDKSRWQQGNVFSCSVMHEALHNHYTQKSLSLSPGK
–	–	110	98	PD-L1(mut7)-Fc (Fc fusion, also called PD-L1(I54Q/E58M/R113T/M115L/S117A)) chain 1: FTVTVPKDLYVVEYGSNMTIECKFPVEKQLDLAALQVYWMMEDKNIIQFVHGEEDLKVQHSSYRQRARLLKDQLSLGNAALQITDVKLQDAGVYTCLIAYGGADYKRITVKVNAPYNKINQRILVVDPVTSEHELTCQAEGYPKAEVIWTSSDHQVLSGKTTTTNSKREEKLFNVTSTLRINTTTNEIFYCTFRRLDPEENHTAELVIPELPLAHPPNERDKTHTCPPCPAPEDEGGPSVFLFPPKPKDTLMISRTPEVTCVVVDVSHEDPEVKFNWYVDGVEVHNAKTKPREEQYNSTYRVVSVLTVLHQDWLNGKEYKCKVSNKALPAPIEKTISKAKGQPREPQVYVYPPSREEMTKNQVSLTCLVKGFYPSDIAVEWESNGQPENNYKTTPPVLDEDGSFALVSKLTVDKSRWQQGNVFSCSVMHEALHNHYTQKSLSLSPGK chain 2: FTVTVPKDLYVVEYGSNMTIECKFPVEKQLDLAALQVYWMMEDKNIIQFVHGEEDLKVQHSSYRQRARLLKDQLSLGNAALQITDVKLQDAGVYTCLIAYGGADYKRITVKVNAPYNKINQRILVVDPVTSEHELTCQAEGYPKAEVIWTSSDHQVLSGKTTTTNSKREEKLFNVTSTLRINTTTNEIFYCTFRRLDPEENHTAELVIPELPLAHPPNERDKTHTCPPCPAPEKKGGPSVFLFPPKPKDTLMISRTPEVTCVVVDVSHEDPEVKFNWYVDGVEVHNAKTKPREEQYNSTYRVVSVLTVLHQDWLNGKEYKCKVSNKALPAPIEKTISKAKGQPREPQVYVLPPSREEMTKNQVSLLCLVKGFYPSDIAVEWESNGQPENRYMTWPPVLDSDGSFFLYSKLTVDKSRWQQGNVFSCSVMHEALHNHYTQKSLSLSPGK
–	–	420	555	PD-L1(mut6)-Fc (Fc fusion, also called PD-L1(I54Q/E58M/R113T/M115L/G119K)) chain 1: FTVTVPKDLYVVEYGSNMTIECKFPVEKQLDLAALQVYWMMEDKNIIQFVHGEEDLKVQHSSYRQRARLLKDQLSLGNAALQITDVKLQDAGVYTCLISYKGADYKRITVKVNAPYNKINQRILVVDPVTSEHELTCQAEGYPKAEVIWTSSDHQVLSGKTTTTNSKREEKLFNVTSTLRINTTTNEIFYCTFRRLDPEENHTAELVIPELPLAHPPNERDKTHTCPPCPAPEDEGGPSVFLFPPKPKDTLMISRTPEVTCVVVDVSHEDPEVKFNWYVDGVEVHNAKTKPREEQYNSTYRVVSVLTVLHQDWLNGKEYKCKVSNKALPAPIEKTISKAKGQPREPQVYVYPPSREEMTKNQVSLTCLVKGFYPSDIAVEWESNGQPENNYKTTPPVLDEDGSFALVSKLTVDKSRWQQGNVFSCSVMHEALHNHYTQKSLSLSPGK chain 2: FTVTVPKDLYVVEYGSNMTIECKFPVEKQLDLAALQVYWMMEDKNIIQFVHGEEDLKVQHSSYRQRARLLKDQLSLGNAALQITDVKLQDAGVYTCLISYKGADYKRITVKVNAPYNKINQRILVVDPVTSEHELTCQAEGYPKAEVIWTSSDHQVLSGKTTTTNSKREEKLFNVTSTLRINTTTNEIFYCTFRRLDPEENHTAELVIPELPLAHPPNERDKTHTCPPCPAPEKKGGPSVFLFPPKPKDTLMISRTPEVTCVVVDVSHEDPEVKFNWYVDGVEVHNAKTKPREEQYNSTYRVVSVLTVLHQDWLNGKEYKCKVSNKALPAPIEKTISKAKGQPREPQVYVLPPSREEMTKNQVSLLCLVKGFYPSDIAVEWESNGQPENRYMTWPPVLDSDGSFFLYSKLTVDKSRWQQGNVFSCSVMHEALHNHYTQKSLSLSPGK

— US20230167164A1 (IMMUNOWAKE, published 2023)
